For assay [1], the target named is T1, human CD28 stalk region dimeric peptide (Homo sapiens, UniProt P10747).
T1 construct: purchased Genecust Europe (custom synthesis, stated for the tagged peptide); host or cells: synthetic peptide
Kind of assay: CD28 stalk region binding assay (ELISA), wild-type peptide. The conditions noted are these: serial dilution ELISA.

The target of assay [2] is T2, CD28 shedding in HEK cells overexpressing human CD28 (Homo sapiens, UniProt P10747).
T2 construct: HEK293 cells overexpressing human full-length CD28 were analyzed; expressed in transfected cells
Kind of assay: HEK spontaneous CD28 shedding assay. The conditions noted are these: 48 hr, 3.3-100 μg/mL. The assay is classed as cell-based.

The next assay has as its target T3, CD28 shedding in PBMC (Homo sapiens, UniProt P10747).
T3 construct: endogenous in cells; host or cells: CD4 T cells and PBMCs from fresh blood of healthy donors
Kind of assay: CD28 shedding in PBMC activated by superantigen (SEB). The assay is classed as cell-based. Particulars: 1 ng/mL SEB; 0.4-50 μg/mL. The method, then: FIG. 9. […] Levels of soluble CD28 were measured in culture media of isolated PBMC stimulated with 1 ng/mL SEB (light grey bar). […] The levels of soluble human CD28 in the supernatant were quantified with standardized sandwich ELISA (R&D system).
Cellular assays evaluating anti shedding activity of VHH—For SEB activation of PBMCs, 0.1×10^6 PBMCs were stimulated with […] SEB (Sigma, Cat. No. S4881) for 5-7 days at 37° C. with/without the indicated concentrations of various treatments in 96 well plates. For PHA activated T cells, 0.1×10^6 CD4 T cells were incubated with the indicated concentration of Phytohemagglutinin (Sigma, Cat. No. L8902) and 200 IU/mL of IL-2 (Proleukine) for 5-7 days at 37° C. with/without the indicated concentrations of various treatments in 96 well plates. For HEK spontaneous CD28 shedding assay, 0.1×10^5 HEK cells were incubated for 48 hours at 37° C. with/without the indicated concentrations of various treatments in 96 well plates.

The target of assay [3] is T4, CD28 shedding in isolated human CD4 T cells (Homo sapiens, UniProt P10747).
T4 construct: endogenous in cells; host or cells: CD4 T cells and PBMCs from fresh blood of healthy donors
Briefly: CD28 shedding in isolated CD4 T cells activated by PHA and IL2. The conditions noted are these: 5 μg/mL PHA, 200 IU/mL IL-2; 0.4-50 μg/mL. The assay is classed as cell-based.

B1: 4A1: VHH clone binding the stalk region of human CD28, SEQ ID NO: 35 (protein)
VHH: QVQLVESGGGLVQAGGSLRLSCAASGSIFSINAMGWYRQAPGKQRERVAAITSGGSTNYADSVKGRFTISRDNAKNTVYLQMNNLEPRDAGVYYCVVDLYGEDYWIWGQGTQVTVSSAAAHHHHHH
B1: in assay [1], the “binding to human CD28 stalk region peptide (in words)” value is recorded as “bind specifically”.

B2: 4A4: VHH clone binding the stalk region of human CD28, SEQ ID NO: 34 (protein)
VHH: EVQLVESGGGLVQAGGSLRLSCAASGSLFSINAMAWYRQAPGKQRELVAAITSSGSTNYANSVKGRFTVSRDNAKNTMYLQMNSLKPEDTAVYYCVVDEYGSDYWIWGQGTQVTVSSAAAHHHHHH
Regarding B2, the “inhibition of CD28 shedding, HEK cells overexpressing human CD28” value in assay [2] was “inhibit CD28 shedding”. In addition, the “binding to human CD28 stalk region peptide (in words)” value in assay [1] is “bind specifically”. Also, the “inhibition of CD28 shedding, PBMC activated by SEB” value in the assay with CD28 shedding in PBMC was “inhibit CD28 shedding”. For the same molecule, the “inhibition of CD28 shedding, CD4 T cells activated by PHA and IL2” value in assay [3] is reported as “inhibit CD28 shedding”.
